{
  "source": "patent US12319925B2",
  "about": "“Methods and compositions for genomic integration” (Myeloid Therapeutics, Inc., priority 2021, dated 2025)",
  "molecules": {"B1": {"name": "LINE-1plasmid-cd5_fcr-pi3k_t2a_GFPintron: LINE-1 plasmid with 3.7 kb cargo: CD5 binding receptor, T2A, intron-interrupted GFP (SEQ ID NO: 40) (nucleic acid)", "DNA": "CGGCCGCGGGGGGAGGAGCCAAGATGGCCGAATAGGAACAGCTCCGGTCTACAGCTCCCAGCGTGAGCGACGCAGAAGACGGTGATTTCTGCATTTCCATCTGAGGTACCGGGTTCATCTCACTAGGGAGTGCCAGACAGTGGGCGCAGGCCAGTGTGTGTGCGCACCGTGCGCGAGCCGAAGCAGGGCGAGGCATTGCCTCACCTGGGAAGCGCAAGGGGTCAGGGAGTTCCCTTTCCGAGTCAAAGAAAGGGGTGACGGACGCACCTGGAAAATCGGGTCACTCCCACCCGAATATTGCGCTTTTCAGACCGGCTTAAGAAACGGCGCACCACGAGACTATATCCCACACCTGGCTCGGAGGGTCCTACGCCCACGGAATCTCGCTGATTGCTAGCACAGCAGTCTGAGATCAAACTGCAAGGCGGCAACGAGGCTGGGGGAGGGGCGCCCGCCATTGCCCAGGCTTGCTTAGGTAAACAAAGCAGCAGGGAAGCTCGAACTGGGTGGAGCCCACCACAGCTCAAGGAGGCCTGCCTGCCTCTGTAGGCTCCACCTCTGGGGGCAGGGCACAGACAAACAAAAAGACAGCAGTAACCTCTGCAGACTTAAGTGTCCCTGTCTGACAGCTTTGAAGAGAGCAGTGGTTCTCCCAGCACGCAGCTGGAGATCTGAGAACGGGCAGACTGCCTCCTCAAGTGGGTCCCTGACCCCTGACCCCCGAGCAGCCTAACTGGGAGGCACCCCCCAGCAGGGGCACACTGACACCTCACACGGCAGGGTATTCCAACAGACCTGCAGCTGAGGGTCCTGTCTGTTAGAAGGAAAACTAACAACCAGAAAGGACATCTACACCGAAAACCCATCTGTACATCACCATCATCAAAGACCAAAAGTAGATAAAACCACAAAGATGGGGAAAAAACAGAACAGAAAAACTGGAAACTCTAAAACGCAGAGCGCCTCTCCTCCTCCAAAGGAACGCAGTTCCTCACCAGCAACAGAACAAAGCTGGATGGAGAATGATTTTGATGAGCTGAGAGAAGAAGGCTTCAGACGATCAAATTACTCTGAGCTACGGGAGGACATTCAAACCAAAGGCAAAGAAGTTGAAAACTTTGAAAAAAATTTAGAAGAATGTATAACTAGAATAACCAATACAGAGAAGTGCTTAAAGGAGCTGATGGAGCTGAAAACCAAGGCTCGAGAACTACGTGAAGAATGCAGAAGCCTCAGGAGCCGATGCGATCAACTGGAAGAAAGGGTATCAGCAATGGAAGATGAAATGAATGAAATGAAGCGAGAAGGGAAGTTTAGAGAAAAAAGAATAAAAAGAAATGAGCAAAGCCTCCAAGAAATATGGGACTATGTGAAAAGACCAAATCTACGTCTGATTGGTGTACCTGA"}, "B2": {"name": "CD5-intron-fcr-PI3K: LINE-1 plasmid with 3 kb cargo encoding intron-interrupted CD5 binding chimeric receptor (ATAK) (SEQ ID NO: 39) (nucleic acid)", "DNA": "CGGCCGCGGGGGGAGGAGCCAAGATGGCCGAATAGGAACAGCTCCGGTCTACAGCTCCCAGCGTGAGCGACGCAGAAGACGGTGATTTCTGCATTTCCATCTGAGGTACCGGGTTCATCTCACTAGGGAGTGCCAGACAGTGGGCGCAGGCCAGTGTGTGTGCGCACCGTGCGCGAGCCGAAGCAGGGCGAGGCATTGCCTCACCTGGGAAGCGCAAGGGGTCAGGGAGTTCCCTTTCCGAGTCAAAGAAAGGGGTGACGGACGCACCTGGAAAATCGGGTCACTCCCACCCGAATATTGCGCTTTTCAGACCGGCTTAAGAAACGGCGCACCACGAGACTATATCCCACACCTGGCTCGGAGGGTCCTACGCCCACGGAATCTCGCTGATTGCTAGCACAGCAGTCTGAGATCAAACTGCAAGGCGGCAACGAGGCTGGGGGAGGGGCGCCCGCCATTGCCCAGGCTTGCTTAGGTAAACAAAGCAGCAGGGAAGCTCGAACTGGGTGGAGCCCACCACAGCTCAAGGAGGCCTGCCTGCCTCTGTAGGCTCCACCTCTGGGGGCAGGGCACAGACAAACAAAAAGACAGCAGTAACCTCTGCAGACTTAAGTGTCCCTGTCTGACAGCTTTGAAGAGAGCAGTGGTTCTCCCAGCACGCAGCTGGAGATCTGAGAACGGGCAGACTGCCTCCTCAAGTGGGTCCCTGACCCCTGACCCCCGAGCAGCCTAACTGGGAGGCACCCCCCAGCAGGGGCACACTGACACCTCACACGGCAGGGTATTCCAACAGACCTGCAGCTGAGGGTCCTGTCTGTTAGAAGGAAAACTAACAACCAGAAAGGACATCTACACCGAAAACCCATCTGTACATCACCATCATCAAAGACCAAAAGTAGATAAAACCACAAAGATGGGGAAAAAACAGAACAGAAAAACTGGAAACTCTAAAACGCAGAGCGCCTCTCCTCCTCCAAAGGAACGCAGTTCCTCACCAGCAACAGAACAAAGCTGGATGGAGAATGATTTTGATGAGCTGAGAGAAGAAGGCTTCAGACGATCAAATTACTCTGAGCTACGGGAGGACATTCAAACCAAAGGCAAAGAAGTTGAAAACTTTGAAAAAAATTTAGAAGAATGTATAACTAGAATAACCAATACAGAGAAGTGCTTAAAGGAGCTGATGGAGCTGAAAACCAAGGCTCGAGAACTACGTGAAGAATGCAGAAGCCTCAGGAGCCGATGCGATCAACTGGAAGAAAGGGTATCAGCAATGGAAGATGAAATGAATGAAATGAAGCGAGAAGGGAAGTTTAGAGAAAAAAGAATAAAAAGAAATGAGCAAAGCCTCCAAGAAATATGGGACTATGTGAAAAGACCAAATCTACGTCTGATTGGTGTACCTGAAAGTGATG"}, "B3": {"name": "LINE-1 plasmid GFP: plasmid with LINE-1 ORF1, ORF2 and CMV promoter driven split GFP gene in reverse orientation in the 3′UTR (SEQ ID NO: 37) (nucleic acid)", "DNA": "CGGCCGCGGGGGGAGGAGCCAAGATGGCCGAATAGGAACAGCTCCGGTCTACAGCTCCCAGCGTGAGCGACGCAGAAGACGGTGATTTCTGCATTTCCATCTGAGGTACCGGGTTCATCTCACTAGGGAGTGCCAGACAGTGGGCGCAGGCCAGTGTGTGTGCGCACCGTGCGCGAGCCGAAGCAGGGCGAGGCATTGCCTCACCTGGGAAGCGCAAGGGGTCAGGGAGTTCCCTTTCCGAGTCAAAGAAAGGGGTGACGGACGCACCTGGAAAATCGGGTCACTCCCACCCGAATATTGCGCTTTTCAGACCGGCTTAAGAAACGGCGCACCACGAGACTATATCCCACACCTGGCTCGGAGGGTCCTACGCCCACGGAATCTCGCTGATTGCTAGCACAGCAGTCTGAGATCAAACTGCAAGGCGGCAACGAGGCTGGGGGAGGGGCGCCCGCCATTGCCCAGGCTTGCTTAGGTAAACAAAGCAGCAGGGAAGCTCGAACTGGGTGGAGCCCACCACAGCTCAAGGAGGCCTGCCTGCCTCTGTAGGCTCCACCTCTGGGGGCAGGGCACAGACAAACAAAAAGACAGCAGTAACCTCTGCAGACTTAAGTGTCCCTGTCTGACAGCTTTGAAGAGAGCAGTGGTTCTCCCAGCACGCAGCTGGAGATCTGAGAACGGGCAGACTGCCTCCTCAAGTGGGTCCCTGACCCCTGACCCCCGAGCAGCCTAACTGGGAGGCACCCCCCAGCAGGGGCACACTGACACCTCACACGGCAGGGTATTCCAACAGACCTGCAGCTGAGGGTCCTGTCTGTTAGAAGGAAAACTAACAACCAGAAAGGACATCTACACCGAAAACCCATCTGTACATCACCATCATCAAAGACCAAAAGTAGATAAAACCACAAAGATGGGGAAAAAACAGAACAGAAAAACTGGAAACTCTAAAACGCAGAGCGCCTCTCCTCCTCCAAAGGAACGCAGTTCCTCACCAGCAACAGAACAAAGCTGGATGGAGAATGATTTTGATGAGCTGAGAGAAGAAGGCTTCAGACGATCAAATTACTCTGAGCTACGGGAGGACATTCAAACCAAAGGCAAAGAAGTTGAAAACTTTGAAAAAAATTTAGAAGAATGTATAACTAGAATAACCAATACAGAGAAGTGCTTAAAGGAGCTGATGGAGCTGAAAACCAAGGCTCGAGAACTACGTGAAGAATGCAGAAGCCTCAGGAGCCGATGCGATCAACTGGAAGAAAGGGTATCAGCAATGGAAGATGAAATGAATGAAATGAAGCGAGAAGGGAAGTTTAGAGAAAAAAGAATAAAAAGAAATGAGCAAAGCCTCCAAGAAATATGGGACTATGTGAAAAGACCAAATCTACGTCTGATTGGTGTACCTGAAAGTGATGTGGAGAATGGAACCAA"}},
  "key": {"[1]": {"system": "HEK293T cells", "assay": "Expression of CD5 binder (ATAK) receptor and GFP by flow cytometry with labeled CD5 after LINE-1 plasmid transfection", "assay_type": "cell-based, human", "from_the_text": "HEK 293 cells were transfected with a plasmid having the LINE-1 elements, with a 3 kb cargo sequence encoding recombinant receptor protein CD5-intron-fcr-PI3K (ATAK) that is interrupted by an intron sequence in the CD5 binding domain. The cargo is a chimeric receptor that has a CD5 binding extracellular domain, a FCRγ transmembrane domain, and an intracellular domain having a PI3-kinase recruitment domain. As in the design of the experiment above, the ATAK receptor cannot express unless it is integrated in the genome and the intron is spliced off. Following transfection in HEK293T cells, the receptor expression is detected using labeled CD5 as bait for the CD5 binding extracellular domain. Results shown in FIGS. 9B and 9C show successful integration and expression of the receptor. 36.5% cells were ATAK (CD5 binder) positive (FIG. 9C).\nIn a further modification, a LINE-1 construct (LINE-1plasmid-cd5_fcr-pi3k_t2a_GFPintron) with a longer 3.7 kb cargo sequence encoding a non-interrupted recombinant receptor protein CD5-intron-fcr-PI3K and an interrupted GFP sequence with a T2A sequence between receptor and the GFP sequences (FIG. 10A). […] Exemplary fluorescence identification of GFP and fluorescent tagged CD5 binding and gating quantitation for experimental runs are shown in FIG. 10C and FIG. 10D.\nThe cargo GFP gene in the previous construct was replaced with intron interrupted CD5-FcR-P13K CAR-M sequence (Morrissey et al., 2018). The CD5 binder expression was measured by flow cytometry using a Alexa647-conjugated CD5 protein such that retrotransposed cells are CD5-AF647 positive (red histogram) compared with a plasmid transfected negative control cell population (grey histogram) (FIG. 30).\nThe cargo gene length was extended by adding the intron-interrupted GFP gene after the T2A sequence downstream of the CD5-FcR-PI3K CAR-M sequence (FIG. 31). The CD5 binder expression was measured by flow cytometry using a Alexa647-conjugated CD5 protein. […]"}, "[2]": {"system": "Jurkat cells", "assay": "GFP expression after delivery of LINE-1 plasmid or mRNA with CMV-GFP antisense reporter", "assay_type": "cell-based", "conditions": "4 days post electroporation, relative to mock, FIG. 17B", "protocol": "To test retrotransposition in immune cells, LINE-1 plasmid and mRNA were tested with the CMV-GFP antisense reporter cargo by electroporating into Jurkat cells, which is a T cell lymphoma line (FIG. 17A-FIG. 17B). Mock set were electroporated with a plasmid with no GFP sequence. Fold increase is reported relative to mock transfected cells."}},
  "data": [
    {"molecule": "B1", "values": [
      {"measurement": "cells express both CAR-M and GFP proteins", "setting": "[1]; 3.7 kb cargo, flow cytometry signal in Q2, Alexa647-conjugated CD5 protein, FIG. 31", "result": 10.8, "unit": "%"},
      {"measurement": "increase of the ATAK receptor and GFP double-positive cells", "setting": "[1]; 3.7 kb cargo, normalized against mock-transfected cells, FIG. 10B", "result": "greater than 10 fold"}
    ]},
    {"molecule": "B2", "values": [
      {"measurement": "cells ATAK (CD5 binder) positive", "setting": "[1]; HEK293T cells transfected with LINE-1 plasmid, 3 kb cargo, labeled CD5 as bait, FIG. 9C", "result": 36.5, "unit": "%"}
    ]},
    {"molecule": "B3", "values": [
      {"measurement": "GFP expression", "setting": "[2]", "result": "successful GFP expression"}
    ]}
  ]
}
